T1: human CXCR5 (human, UniProt P32302 1-372)
T1 construct: also called hCXCR5; C-X-C chemokine receptor type 5
T1 sequence: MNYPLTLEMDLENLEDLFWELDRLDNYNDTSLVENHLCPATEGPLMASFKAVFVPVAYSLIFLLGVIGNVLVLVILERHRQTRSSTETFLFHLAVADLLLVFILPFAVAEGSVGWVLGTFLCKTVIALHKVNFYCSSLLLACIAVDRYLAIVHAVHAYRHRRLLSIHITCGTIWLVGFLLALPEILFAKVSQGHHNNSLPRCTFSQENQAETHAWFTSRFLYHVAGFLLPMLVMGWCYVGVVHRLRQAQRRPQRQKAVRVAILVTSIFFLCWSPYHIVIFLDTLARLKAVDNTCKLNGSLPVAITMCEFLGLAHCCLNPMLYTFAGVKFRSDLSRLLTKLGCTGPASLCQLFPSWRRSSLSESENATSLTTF

T2: rabbit CXCR5 ortholog (rabbit, UniProt G1TNG1 1-374)
T2 sequence: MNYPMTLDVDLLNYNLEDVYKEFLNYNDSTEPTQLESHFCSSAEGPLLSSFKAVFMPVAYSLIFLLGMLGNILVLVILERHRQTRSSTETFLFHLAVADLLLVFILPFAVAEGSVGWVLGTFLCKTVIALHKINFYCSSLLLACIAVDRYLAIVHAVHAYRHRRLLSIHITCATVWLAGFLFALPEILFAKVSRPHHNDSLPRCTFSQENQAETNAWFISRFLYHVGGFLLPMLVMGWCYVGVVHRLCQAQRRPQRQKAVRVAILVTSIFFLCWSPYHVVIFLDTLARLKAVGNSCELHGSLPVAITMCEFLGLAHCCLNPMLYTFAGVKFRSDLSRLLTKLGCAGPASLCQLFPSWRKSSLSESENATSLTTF

T3: cynomolgus monkey CXCR5 (cynomolgus monkey, UniProt P32302 1-372 (human entry))
T3 construct: also called cynoCXCR5; NHP CXCR5
T3 chain: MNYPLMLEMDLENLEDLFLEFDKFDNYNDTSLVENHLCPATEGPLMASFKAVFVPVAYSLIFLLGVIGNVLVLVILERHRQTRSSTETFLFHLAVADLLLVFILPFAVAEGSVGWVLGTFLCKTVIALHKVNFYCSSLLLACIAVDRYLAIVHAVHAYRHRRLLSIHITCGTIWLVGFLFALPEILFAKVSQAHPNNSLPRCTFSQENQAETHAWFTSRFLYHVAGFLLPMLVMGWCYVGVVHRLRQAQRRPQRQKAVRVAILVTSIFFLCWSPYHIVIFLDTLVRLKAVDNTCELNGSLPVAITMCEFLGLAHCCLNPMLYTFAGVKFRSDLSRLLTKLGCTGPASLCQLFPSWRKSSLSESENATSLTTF


Experiments:
human CXCR5 = target: T1, human CXCR5; assay: flow cytometry, B cells from human PBMCs (FIG. 5); afucosylated
rabbit CXCR5 ortholog = target: T2, rabbit CXCR5 ortholog; assay: not described
cynomolgus monkey CXCR5 = target: T3, cynomolgus monkey CXCR5; assay: flow cytometry on cynoCXCR5-300.19 cells, fucosylated chimeric antibody

Row | EC50 (human CXCR5) [nM] | binding result (rabbit CXCR5 ortholog) | EC50 (cynomolgus monkey CXCR5) [nM] | Binder
1 | 0.0119 | no binding |  | Afucosyl humanized 11G2 154/155 (antibody, human IgG1, kappa, V domains shown, afucosylated Fc glycan (Asn297), also called afucosyl h11G2 XC154/XC155; afucosylated h11G2 VL XC154/VH XC155) VH: EVQLVESGGGLVQPGGSLRLSCAASGFTFTDFYMSWVRQAPGKGLEWVGFIRNKANGYTTEYSASVKGRFTISRDNAKNSLYLQMNSLRAEDTAVYYCARVYGSTLHYWGQGTLVTVSS VL: DIQMTQSPSSLSASVGDRVTITCRASESVEYHGTSLMHWYQQKPGKAPKLLIYAASNVESGVPSRFSGSGSGTDFTLTISSLQPEDFATYYCQQSRKVPWTFGQGTKVEIKR
2 |  |  | 0.0242 | Chimeric 11G2 (antibody, human IgG1, kappa, V domains shown, mouse V regions on human IgG1/kappa; also called 11G2 (chimeric)) VH: EVKLVESGGGLVQPGGSLRLSCATSGFTFTDFYMSWVRQPPGRALEWLGFIRNKANGYTTEYSASVKGRFTISRDNSQSILYLQMNTLRAGDSATYYCVRVYGSTLHYWGQGTILTVSS VL: DVVVTQSPDSLAVSLGQRATISCRASESVEYHGTSLMHWYQQKPGQPPKLLIYAASNVESGVPARFSGSGSGTDFSLNIHPVEEGDIAMYFCQQSRKVPWTFGGGTKLEIKR

From patent publication US20210101970A1 (Pfizer, published 2021)
